Molecular target: T1, β-clamp protein from E. coli (E. coli, UniProt P0A988 1-366, labeled with a fluorescent molecule (site not stated))
T1 construct: Fluorescently labelled for microscale thermophoresis; also called sliding clamp
Assay: microscale thermophoresis, fluorescently labelled β-clamp, peptide titrated (table cell the 66th table, row 38, column 4 prints 'Nd')

T1 sequence (P0A988 whole entry): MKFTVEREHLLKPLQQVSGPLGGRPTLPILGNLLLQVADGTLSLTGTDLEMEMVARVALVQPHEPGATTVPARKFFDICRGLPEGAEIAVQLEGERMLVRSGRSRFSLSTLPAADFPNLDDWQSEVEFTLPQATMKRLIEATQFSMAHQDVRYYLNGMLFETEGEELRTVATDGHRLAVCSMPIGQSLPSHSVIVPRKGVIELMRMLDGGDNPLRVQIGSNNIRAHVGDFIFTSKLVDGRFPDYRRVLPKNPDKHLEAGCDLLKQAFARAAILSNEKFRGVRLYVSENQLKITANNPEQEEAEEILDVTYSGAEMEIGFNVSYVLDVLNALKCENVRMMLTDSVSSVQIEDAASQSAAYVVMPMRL

B1: R11 peptide (SEQ ID NO: 337) (peptide)
peptide: RRRRRRRRRRR
notes: Control peptide without APIM motif; also called cell penetrating peptide
binding result: no binding
